Test results published in PMC5487486.

How the values were obtained:
[1] = molecular target: TaSPA (Triticum aestivum); test: two-hybrid; Gal4 system (pGADT7 and pGBKT7), yeast strain Y187, read out by growth and β-galactosidase (LacZ) activity, three replicates
[2] = molecular target: TaFUSCA3 N-terminal region (1st to 60th amino acids) (Triticum aestivum); test: as above

Chain of TaSPA (Triticum aestivum) (Q7X9A8 whole entry, the tested form may be a part): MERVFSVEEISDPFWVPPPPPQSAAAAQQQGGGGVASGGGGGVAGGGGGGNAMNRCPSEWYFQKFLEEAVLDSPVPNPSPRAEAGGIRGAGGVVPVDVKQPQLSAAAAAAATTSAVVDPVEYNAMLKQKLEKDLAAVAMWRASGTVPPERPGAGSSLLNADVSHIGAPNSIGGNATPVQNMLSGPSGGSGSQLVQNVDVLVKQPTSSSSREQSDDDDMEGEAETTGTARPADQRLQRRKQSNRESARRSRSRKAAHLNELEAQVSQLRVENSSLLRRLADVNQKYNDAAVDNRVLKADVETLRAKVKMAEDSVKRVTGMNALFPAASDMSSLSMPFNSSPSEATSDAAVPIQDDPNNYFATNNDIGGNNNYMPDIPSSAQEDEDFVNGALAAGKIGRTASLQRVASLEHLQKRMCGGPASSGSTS

fold β-galactosidase activity over AD-FUSCA3* with BD-SPA [1] [fold]	fold β-galactosidase activity over the B3 domain with SPA [2] [fold]	Substance
2		TaFUSCA3 (natural protein)
	4	TaSPA (from UniProt Q7X9A8 1-425) (natural protein)
